The target in the test is T1, Hendra virus nucleoprotein C-terminal domain N_(TAIL) (residues 401-532) (Hendra virus, UniProt O89339 401-532).
T1 sequence: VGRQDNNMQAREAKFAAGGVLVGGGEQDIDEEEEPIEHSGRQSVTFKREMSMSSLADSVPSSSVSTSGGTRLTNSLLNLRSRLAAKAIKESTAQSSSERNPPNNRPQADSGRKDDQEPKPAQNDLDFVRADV
Briefly: NMR titration; […]) ([…]); 298 K; […], pH 6.0. The note with it: both partners purified.

Ends that are not written are not given here.

B1: Hendra virus phosphoprotein X domain (XD, residues 654-707), 13C,15N labeled, without hexahistidine tag (domain or fragment)
chain: ADDASKDVVRTMIRTHIKDRELRSELMDYLNRAETDEEVQEVANTVNDIIDGNI
modifications: also: 13C,15N labeled
In the case of B1, the binding result is listed as “binds”.

(Values after publication PMC3784471 (PLoS Pathogens, 2013).)
